In patent US20230338555A1 (IONIS PHARMACEUTICALS, published 2023):
Like-named read-outs stand apart in the source and are kept apart here.

How the values were obtained:
Experiment in all cases: cell-based or functional assay
[1] = biological target: T1, human sortilin stably expressed on HEK 293 cells (HEK-SORT1 cells) (human, UniProt Q99523 78-831)
T1 sequence (looked up): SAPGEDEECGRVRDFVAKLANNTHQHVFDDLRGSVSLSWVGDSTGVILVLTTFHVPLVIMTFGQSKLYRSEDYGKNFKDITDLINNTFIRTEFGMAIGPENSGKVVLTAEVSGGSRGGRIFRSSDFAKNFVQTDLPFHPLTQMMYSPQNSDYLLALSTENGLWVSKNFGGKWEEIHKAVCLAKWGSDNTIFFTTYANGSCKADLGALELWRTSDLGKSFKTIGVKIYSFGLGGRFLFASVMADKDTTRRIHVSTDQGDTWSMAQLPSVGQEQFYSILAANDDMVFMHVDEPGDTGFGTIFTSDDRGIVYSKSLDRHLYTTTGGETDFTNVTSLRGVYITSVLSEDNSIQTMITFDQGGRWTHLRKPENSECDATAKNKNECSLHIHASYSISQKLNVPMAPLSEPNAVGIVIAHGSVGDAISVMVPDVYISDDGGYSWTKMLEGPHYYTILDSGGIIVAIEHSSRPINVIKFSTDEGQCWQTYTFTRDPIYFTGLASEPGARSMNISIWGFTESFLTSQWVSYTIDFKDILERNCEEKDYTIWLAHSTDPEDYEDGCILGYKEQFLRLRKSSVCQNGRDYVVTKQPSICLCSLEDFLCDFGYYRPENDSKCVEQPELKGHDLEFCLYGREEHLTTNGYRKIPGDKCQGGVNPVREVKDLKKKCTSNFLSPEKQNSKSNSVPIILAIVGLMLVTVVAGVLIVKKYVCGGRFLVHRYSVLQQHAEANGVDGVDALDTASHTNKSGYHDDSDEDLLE

[2] = biological target: T1, human sortilin stably expressed on HEK …; remark: listed apart in the source
[3] = biological target: T1, human sortilin stably expressed on HEK …; remark: listed apart in the source
[4] = biological target: T1, human sortilin stably expressed on HEK …; remark: listed apart in the source
[5] = biological target: T1, human sortilin stably expressed on HEK …; remark: listed apart in the source
[6] = biological target: T1, human sortilin stably expressed on HEK …; remark: listed apart in the source

Mean Fluorescence Intensity (MFI), uptake 37C-4C, at 12 nM [1]: 43 MFI | Mean Fluorescence Intensity (MFI), uptake 37C-4C, at 37 nM [1]: 54 MFI | Mean Fluorescence Intensity (MFI), uptake 37C-4C, at 111 nM [1]: 71 MFI | Mean Fluorescence Intensity (MFI), uptake 37C-4C, at 333 nM [1]: 171 MFI | Mean Fluorescence Intensity (MFI), uptake 37C-4C, at 1000 nM [1]: 293 MFI | Mean Fluorescence Intensity (MFI), uptake 37C-4C, at 12 nM [2]: 67 MFI | Mean Fluorescence Intensity (MFI), uptake 37C-4C, at 111 nM [2]: 85 MFI | Mean Fluorescence Intensity (MFI), uptake 37C-4C, at 333 nM [2]: 123 MFI | Mean Fluorescence Intensity (MFI), uptake 37C-4C, at 1000 nM [2]: 192 MFI | Mean Fluorescence Intensity (MFI), uptake 37C-4C, at 3000 nM [2]: 427 MFI | Mean Fluorescence Intensity (MFI), uptake 37C-4C, at 12 nM [3]: 54 MFI | Mean Fluorescence Intensity (MFI), uptake 37C-4C, at 37 nM [3]: 66 MFI | Mean Fluorescence Intensity (MFI), uptake 37C-4C, at 111 nM [3]: 101 MFI | Mean Fluorescence Intensity (MFI), uptake 37C-4C, at 333 nM [3]: 205 MFI | Mean Fluorescence Intensity (MFI), uptake 37C-4C, at 1000 nM [3]: 370 MFI | Mean Fluorescence Intensity (MFI), uptake 37C-4C, at 7 nM [4]: 43 MFI | Mean Fluorescence Intensity (MFI), uptake 37C-4C, at 22 nM [4]: 50 MFI | Mean Fluorescence Intensity (MFI), uptake 37C-4C, at 76 nM [4]: 73 MFI | Mean Fluorescence Intensity (MFI), uptake 37C-4C, at 260 nM [4]: 145 MFI | Mean Fluorescence Intensity (MFI), uptake 37C-4C, at 882 nM [4]: 381 MFI | Mean Fluorescence Intensity (MFI), uptake 37C-4C, at 3000 nM [4]: 1300 MFI | Mean Fluorescence Intensity (MFI), uptake 37C-4C, at 12 nM [5]: 38 MFI | Mean Fluorescence Intensity (MFI), uptake 37C-4C, at 37 nM [5]: 47 MFI | Mean Fluorescence Intensity (MFI), uptake 37C-4C, at 333 nM [5]: 143 MFI | Mean Fluorescence Intensity (MFI), uptake 37C-4C, at 1000 nM [5]: 371 MFI | Mean Fluorescence Intensity (MFI), uptake 37C-4C, at 12 nM [6]: 43 MFI | Mean Fluorescence Intensity (MFI), uptake 37C-4C, at 37 nM [6]: 54 MFI | Mean Fluorescence Intensity (MFI), uptake 37C-4C, at 111 nM [6]: 71 MFI | Mean Fluorescence Intensity (MFI), uptake 37C-4C, at 333 nM [6]: 171 MFI | Mean Fluorescence Intensity (MFI), uptake 37C-4C, at 1000 nM [6]: 293 MFI
B1: Compound No. 1162754, KNT neurotensin peptide conjugated to 20-mer uniform 2'-MOE phosphodiester oligonucleotide with 3'-Cy3 (peptide)
peptide: XLYENKPRRPYIL
modifications: not fully specified; position 1 printed dK (X = 2-azido-acetyl lysine); side chain joined via triazolo-BCN carbamate / 6-aminohexanol linker to the 5' end of oligonucleotide … (SEQ ID NO 2, uniform MOE, phosphodiester, 3'-Cy3)
